# Biological target: the molecule itself
# Test: SEC
protein,measurement,value
SMG-9 (natural protein) MSESGHSQPGLYGIERRRRWKEPGSGGPQNLSGPGGRERDYIAPWERERRDASEETSTSVMQKTPIILSKPPAERSKQPPPPTAPAAPPAPAPLEKPIVLMKPREEGKGPVAVTGASTPEGTAPPPPAAPAPPKGEKEGQRPTQPVYQIQNRGMGTAAPAAMDPVVGQAKLLPPERMKHSIKLVDDQMNWCDSAIEYLLDQTDVLVVGVLGLQGTGKSMVMSLLSANTPEEDQRTYVFRAQSAEMKERGGNQTSGIDFFITQERIVFLDTQPILSPSILDHLINNDRKLPPEYNLPHTYVEMQSLQIAAFLFTVCHVVIVVQDWFTDLSLYRFLQTAEMVKPSTPSPSHESSSSSGSDEGTEYYPHLVFLQNKARREDFCPRKLRQMHLMIDQLMAHSHLRYKGTLSMLQCNVFPGLPPDFLDSEVNLFLVPFMDSEAESENPPRAGPGSSPLFSLLPGYRGHPSFQSLVSKLRSQVMSMARPQLSHTILTEKNWFHYAARIWDGVRKSSALAEYSRLLA,stoichiometry N,~2
